Consider 3 molecules from patent US9766250B2, “Method for detecting protein-protein interaction” (MEDICAL & BIOLOGICAL LABORATORIES CO., LTD., priority 2011, dated 2017).

In experiment [1] the target is T1, mTOR(FRB) and FKBP12 interaction (Homo sapiens, UniProt P42345+P62942).
T1 construct: region having the 2025th to 2114th amino acids of the mTOR protein; expressed in transfected cells; host or cells: HeLaS3; 293T for some combinations with FKBP12-Tankyrase(SAM)
As to the kind of experiment: Degree of fluorescent focus (assembly) formation after rapamycin, fluorescent proteins fused to mTOR(FRB) (Example 8, Table 1). The experiment is classed as cell-based. Particulars: fluorescent protein fused to mTOR(FRB); for degree of fluorescent focus formation, DGKd (SAM): with FKBP12-DGKd(SAM); for degree of fluorescent focus formation, TEL (SAM): with FKBP12-TEL(SAM); for degree of fluorescent focus formation, Tankyrase (SAM): with FKBP12-Tankyrase(SAM), some combinations in 293T cells; for degree of fluorescent focus formation, P62 (PB1): with p62(PB1)-FKBP12. How it is done:
Note that plasmid DNAs encoding fusion proteins composed of mTOR(FRB) and the corresponding fluorescent proteins were prepared as appropriate by the same method as that described in Example 2. Moreover, regarding the combinations of FKBP12-Tankyrase(SAM) with mKO2, mKeima, mMiCy1, mKO1, MiCy1, and TGuv, the test was conducted by introducing the genes into 293T cells. Specifically, the 293T cells were cultured in DMEM High glucose (manufactured by SIGMA ALDRICH CO.) containing 10% FBS (manufactured by Equitech-Bio Inc.). Moreover, the 293T cells were seeded onto an 8-well chamber (manufactured by Nunc A/S) 6 hours before the plasmid DNAs were introduced. Further, at the time of the transfection, 200 ng of the plasmid DNA encoding FKBP12-Tankyrase(SAM) and 200 ng of one of the plasmid DNAs encoding fusion proteins composed of the fluorescent proteins and mTOR(FRB) were diluted with 30 μl of OptiMEM (manufactured by Life Technologies Corporation), and 1.2 μl of TurboFect Transfection Reagent (manufactured by Thermo Fisher Scientific Inc.) was added thereto and stirred. Then, the resultant was further mixed with 300 μl of the culture solution, subsequently added to the 293T cells, and observed 48 hours later.

In experiment [2] the target is T1, mTOR(FRB) and FKBP12 interaction. As to the kind of experiment: Degree of fluorescent focus (assembly) formation after rapamycin with TFG(PB1) (Example 9, Table 2). Type of experiment: cell-based. The conditions noted are these: fluorescent protein fused to mTOR(FRB), KO1 and dAG (AB) in 293T cells.

T1 sequence (P42345 2025-2114): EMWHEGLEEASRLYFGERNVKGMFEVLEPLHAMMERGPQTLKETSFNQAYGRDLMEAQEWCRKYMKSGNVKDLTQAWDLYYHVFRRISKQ
T1 sequence (P62942 whole entry): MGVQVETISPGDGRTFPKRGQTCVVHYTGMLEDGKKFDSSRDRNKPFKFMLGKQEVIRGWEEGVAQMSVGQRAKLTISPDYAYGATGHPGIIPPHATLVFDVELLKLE

B1: COR5: fluorescent protein capable of homotetramerization, SEQ ID NO: 172 (protein)
chain: MALSKHGLTKNMTTKYRMEGCVDGHKFVITGDGIGDPFEGKQTSIDLCVVEGGPLPFSEDILSTVFDYGNRVFTKYPQDLVDYFKNSCPAGYTWQRSFLFEDGAVCTASADIRVSVEENCFYHESKFHGVNFPADGPVMKKMTTNWEPSCEKITPILNEGILKGDVTMFLLLKDGGRYRCQFDTVYKAKADAKDMPEMHFIQHELTREDRSDAKHQKWRLVESAIAYRSTPP
modifications: Synthetic sequence COR5
As to B1, in experiment [1], the “degree of fluorescent focus formation, DGKd (SAM)” value (“degree … DGKd (SAM)” below) is recorded as “+++ (fluorescent foci were observed in 50% or more of the HeLaS3 cells)”; the “degree of fluorescent focus formation, TEL (SAM)” value (shortened to “degree … TEL (SAM)”) was “+++ (fluorescent foci were observed in 50% or more of the HeLaS3 cells)”; the “degree of fluorescent focus formation, Tankyrase (SAM)” value (“degree … Tankyrase (SAM)” below) is listed as “+++ (fluorescent foci were observed in 50% or more of the HeLaS3 cells)”; the “degree of fluorescent focus formation, P62 (PB1)” value (“degree … P62 (PB1)” below) is given as “+++ (fluorescent foci were observed in 50% or more of the HeLaS3 cells)”. In experiment [2], the “degree of fluorescent focus formation, TFG (PB1)” value (from here on “degree … TFG (PB1)”) is “++ (fluorescent foci were observed in 50% or less of the HeLaS3 cells)”.

B2: DsRed2: fluorescent protein capable of homotetramerization, SEQ ID NO: 153 (protein)
chain: MASSENVITEFMRFKVRMEGTVNGHEFEIEGEGEGRPYEGHNTVKLKVTKGGPLPFAWDILSPQFQYGSKVYVKHPADIPDYKKLSFPEGFKWERVMNFEDGGVATVTQDSSLQDGCFIYKVKFIGVNFPSDGPVMQKKTMGWEASTERLYPRDGVLKGETHKALKLKDGGHYLVEFKSIYMAKKPVQLPGYYYVDAKLDITSHNEDYTIVEQYERTEGRHHLFL
modifications: Synthetic sequence DsRed2
With B2, in experiment [1], the “degree … DGKd (SAM)” value is reported as “+++ (fluorescent foci were observed in 50% or more of the HeLaS3 cells)”; the “degree … TEL (SAM)” value is given as “+++ (fluorescent foci were observed in 50% or more of the HeLaS3 cells)”; the “degree … Tankyrase (SAM)” value was “+++ (fluorescent foci were observed in 50% or more of the HeLaS3 cells)”; the “degree … P62 (PB1)” value is given as “+++ (fluorescent foci were observed in 50% or more of the HeLaS3 cells)”. Besides, the “degree … TFG (PB1)” value in experiment [2] is on record as “++ (fluorescent foci were observed in 50% or less of the HeLaS3 cells)”.

B3: monomeric Kikume Green-Red1 (protein)
chain: MVSVITSEMKIELRMEGSVNGHKFVITGKGSGRPYEGTQTVDLTVIEGGPLPFAFDILTTAFHYGNRVFVEYPEEIVDYFKQSFPEGYSWERSMSYEDGGICLATNNITMKKDGSNTFVNEIRFDGTNFPANGPVMQRKTVKWEPSTEKMYVRDGVLKGDVEMALLLEGGGHYRCDFRTTYKAKKVVQLPDYHYVDHQMEITSHDKDYNKVKAYEHAKAYSGTYRGAKYEFEA
modifications: Synthetic sequence mKikGR1
Regarding B3, in experiment [1], the “degree … DGKd (SAM)” value is given as “+++ (fluorescent foci were observed in 50% or more of the HeLaS3 cells)”; the “degree … TEL (SAM)” value is “+++ (fluorescent foci were observed in 50% or more of the HeLaS3 cells)”; the “degree … Tankyrase (SAM)” value was “+++ (fluorescent foci were observed in 50% or more of the HeLaS3 cells)”; the “degree … P62 (PB1)” value was “+++ (fluorescent foci were observed in 50% or more of the HeLaS3 cells)”. The “degree … TFG (PB1)” value in experiment [2] is “++ (fluorescent foci were observed in 50% or less of the HeLaS3 cells)”.
